This note sets out measurements from paper PMC10704371.

The target of the assay is T1, N-terminal DNA-binding domain (2-241) of S. pombe Fep1, 6xHis-tagged (S. pombe) (UniProt Q10134).
T1 sequence: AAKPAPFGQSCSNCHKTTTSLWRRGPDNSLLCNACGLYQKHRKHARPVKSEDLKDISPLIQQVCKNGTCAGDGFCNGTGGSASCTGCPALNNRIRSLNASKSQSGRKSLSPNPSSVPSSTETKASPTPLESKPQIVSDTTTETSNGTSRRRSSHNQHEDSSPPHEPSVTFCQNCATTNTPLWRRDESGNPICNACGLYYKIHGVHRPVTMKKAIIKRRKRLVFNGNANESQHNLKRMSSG

B1: Schizosaccharomyces pombe monothiol glutaredoxin Grx4, full length, 6xHis-tagged (natural protein)
chain: MSVEITFVEQFQEILQNGKEQIILLNFYAPWAAPCKQMNQVFDQFAKDTKNAVFLKIEAEKFSDIAESFDVNAVPLFVLIHGAKVLARISGANPQKLKAAIDEYIQPLISQISSTNASVETQVNSVQTTNTTSNTSKAPNGLDSELNERLSTLTNAHNVMLFLKGTPSEPACGFSRKLVGLLREQNVQYGFFNILADDSVRQGLKVFSDWPTFPQLYIKGEFVGGLDIVSEMIENGELQEMLPN
On to B1, for which the Kex of [2Fe-2S] cluster transfer from [2Fe-2S],Zn-Fep1-DBD to apo-Grx4 (CD-monitored titration, 5 mM GSH) is 5.3 and the Kex of [2Fe-2S] cluster transfer from [2Fe-2S],Zn-Fep1-DBD to apo-Grx4 added as a 1:1 mixture with apo-Fra2 (CD-monitored titration, 5 mM GSH) amounted to 36.1.
